Assay [1] has as its target type A insulin receptor, P06213. Nature of the assay: cell-based or functional assay.
For assay [2], the target named is type B insulin receptor, P06213. Nature of the assay: cell-based or functional assay.
The target in assay [3] is type A insulin receptor (UniProt P06213). Nature of the assay: cell-based or functional assay.
Assay [4] has the same target. Nature of the assay: competitive binding SPA, subtype A insulin receptor (FIG. 17D).

Square brackets hold non-standard residues; d marks the D form. Primed or numbered codes have the meaning given here. Ends that are not written are not given here. PEG4″ = 4-unit polyethylene glycol spacer; PEG8″ = 8-unit polyethylene glycol spacer

This note sets out measurements from patent US20150274802A1.

B1: #57: Gly^B2-PEG20K-Gly^B2 #11 dimer (ligand)
chain: GPEHLCGAHLVDALYLVCGDRGFYGYGSSSRRAPQTGIVDECCHRSCDLRRLENYCN
modifications: not fully specified (N-terminus); ends and bridges not checked; also: dimer: N-terminal amines of two chains joined by bifunctional 20K PEG linker
In assay [1], B1 came in with a % Insulin Activity (in vitro, assay not named) of 19.7%; a Phosphorylation (EC50), % IR-A of 19.7%; a potency against the 20K PEGylated monomer (#39) of 4 fold. In assay [2], this molecule returned a % Insulin Activity (in vitro, assay not named) of 5.8%; a Phosphorylation (EC50), % IR-B of 5.8%; a potency against the 20K PEGylated monomer (#39) of 4 fold.

B2: #56: Gly^B2-PEG10K-Gly^B2 #11 dimer (ligand)
chain: B1 chain
modifications: not fully specified (N-terminus); ends and bridges not checked; also: dimer: N-terminal amines of two chains joined by bifunctional 10K PEG linker
Turning to B2, in assay [1], the Phosphorylation (EC50), % IR-A was 38.2%. Also, in assay [2], the Phosphorylation (EC50), % IR-B was 9.7%.

B3: #55: Lys^B1-PEG9-Lys^B1 #20* dimer, GE5K-B^1(H5,10Y16L17)25-C^1-A^1(H8N18,21) (ligand)
chain: GEEEEEKGPEHLCGAHLVDALYLVCGDRGFYGYGSSSRRAPQTGIVDECCHRSCDLRRLENYCN
Regarding B3, the Phosphorylation (EC50), % IR-A with type A insulin receptor [3] came to 44%.

B4: #59: Cys^B1-Lys^C8 #2(sc)-#3 dimer (ligand)
chain 1: CGPEHLCGAELVDALYLVCGDRGFYFNKKGIVDECCFRSCDLRRLENYCN
chain 2: GPEHLCGAELVDALYLVCGDRGFYKGIVDECCFRSCDLRRLENYCN
modifications: here or on the partner: N-terminus acetylated; linker Lys epsilon-amine mercaptopropionylated; Cys B1 side chain disulfide-linked to the mercaptopropionyl group on the linker Lys of the second chain
On to B4, for which the IC50, antagonism test in assay [1] is 2.08 nM. The maximal response in assay [2] was 10%.

B5: #60: Cys^B1-Lys^C8 #2(tc)-#3 dimer (ligand)
chain 1: CGPEHLCGAELVDALYLVCGDRGFYFNKK
chain 2: GIVDECCFRSCDLRRLENYCN
chain 3: B4 chain 2
modifications: here or on the partner: N-terminus acetylated; linker Lys epsilon-amine mercaptopropionylated; Cys B1 side chain disulfide-linked to the mercaptopropionyl group on the linker Lys of the single-chain unit
In assay [1], B5 registered an IC50, antagonism test of 1.89 nM and a maximal receptor response of 50%. The maximal response in assay [2] was determined as 50%.

B6: #53: Lys^C8-Lys^C8 #3 dimer, B^1[H5Y16L17]25-PEG8KPEG4-A^1[N18,21] (ligand)
chain: Ac-GPEHLCGAELVDALYLVCGDRGFY[PEG8″]K(mercaptopropionyl)[PEG4″]GIVDECCFRSCDLRRLENYCN
modifications: ends and bridges not checked; also: dimer: linker Lys side chains joined by disulfide to second chain
B6 had a binding affinity, fold against native insulin with type A insulin receptor [4] of 1.5 fold.

B7: #58: Lys^C8-PEG20K-Lys^C8 #3 dimer (ligand)
chain: Ac-GPEHLCGAELVDALYLVCGDRGFY[PEG8″]KGIVDECCFRSCDLRRLENYCN
modifications: not fully specified (some residues); numbers in words are those of the source; ends and bridges not checked; also: dimer: linker Lys epsilon-amines of two chains joined by bifunctional 20K PEG linker
For B7, the Phosphorylation (EC50), % IR-A in assay [1] was 18.6%.
